T1: Cathepsin G (UniProt P08311 21-244)
T1 sequence (looked up): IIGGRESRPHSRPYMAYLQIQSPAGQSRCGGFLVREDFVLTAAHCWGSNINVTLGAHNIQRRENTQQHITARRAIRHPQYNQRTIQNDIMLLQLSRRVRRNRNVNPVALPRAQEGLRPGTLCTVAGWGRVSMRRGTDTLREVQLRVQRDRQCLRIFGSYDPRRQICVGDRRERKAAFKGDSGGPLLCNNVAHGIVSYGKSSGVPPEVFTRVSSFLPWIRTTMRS

T2: MMP1 (human, UniProt P03956 100-469, limits assumed)
T2 sequence (looked up): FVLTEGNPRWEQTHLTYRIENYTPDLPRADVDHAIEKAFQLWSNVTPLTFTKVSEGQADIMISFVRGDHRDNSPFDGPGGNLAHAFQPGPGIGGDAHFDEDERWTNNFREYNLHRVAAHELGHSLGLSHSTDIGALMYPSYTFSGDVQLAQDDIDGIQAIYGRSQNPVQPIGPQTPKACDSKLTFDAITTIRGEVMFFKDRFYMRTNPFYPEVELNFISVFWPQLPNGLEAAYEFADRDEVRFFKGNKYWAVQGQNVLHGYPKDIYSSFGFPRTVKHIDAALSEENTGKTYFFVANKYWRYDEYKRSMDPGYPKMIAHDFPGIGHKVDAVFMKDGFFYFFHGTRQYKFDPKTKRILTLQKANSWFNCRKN

T3: ADAMTS5 (human, UniProt Q9UNA0 262-622, limits assumed)
T3 sequence (looked up): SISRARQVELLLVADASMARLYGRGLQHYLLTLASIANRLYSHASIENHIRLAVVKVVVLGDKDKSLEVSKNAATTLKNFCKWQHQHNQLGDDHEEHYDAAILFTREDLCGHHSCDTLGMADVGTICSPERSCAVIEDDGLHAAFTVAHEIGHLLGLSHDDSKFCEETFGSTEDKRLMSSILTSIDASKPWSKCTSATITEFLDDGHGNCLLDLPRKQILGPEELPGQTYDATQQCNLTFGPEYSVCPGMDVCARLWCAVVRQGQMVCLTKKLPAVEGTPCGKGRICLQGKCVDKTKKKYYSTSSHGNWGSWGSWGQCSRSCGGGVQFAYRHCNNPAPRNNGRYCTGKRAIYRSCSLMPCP

T4: ADAMTS4 (human, UniProt O75173 213-685, limits assumed)
T4 sequence (looked up): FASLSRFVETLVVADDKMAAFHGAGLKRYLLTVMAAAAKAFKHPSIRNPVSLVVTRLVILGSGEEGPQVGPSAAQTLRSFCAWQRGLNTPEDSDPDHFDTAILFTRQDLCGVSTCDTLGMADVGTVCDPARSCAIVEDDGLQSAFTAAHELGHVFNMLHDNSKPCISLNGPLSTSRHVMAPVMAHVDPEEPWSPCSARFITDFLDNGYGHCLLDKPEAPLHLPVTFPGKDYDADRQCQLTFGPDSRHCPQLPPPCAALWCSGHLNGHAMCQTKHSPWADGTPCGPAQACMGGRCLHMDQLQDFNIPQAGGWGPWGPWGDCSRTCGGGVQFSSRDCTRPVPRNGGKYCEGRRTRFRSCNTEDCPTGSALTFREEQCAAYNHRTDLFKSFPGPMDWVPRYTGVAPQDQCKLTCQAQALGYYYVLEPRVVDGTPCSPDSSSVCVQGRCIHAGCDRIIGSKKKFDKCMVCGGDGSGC

T5: MMP2 (human, UniProt P08253 110-660, limits assumed)
T5 sequence (looked up): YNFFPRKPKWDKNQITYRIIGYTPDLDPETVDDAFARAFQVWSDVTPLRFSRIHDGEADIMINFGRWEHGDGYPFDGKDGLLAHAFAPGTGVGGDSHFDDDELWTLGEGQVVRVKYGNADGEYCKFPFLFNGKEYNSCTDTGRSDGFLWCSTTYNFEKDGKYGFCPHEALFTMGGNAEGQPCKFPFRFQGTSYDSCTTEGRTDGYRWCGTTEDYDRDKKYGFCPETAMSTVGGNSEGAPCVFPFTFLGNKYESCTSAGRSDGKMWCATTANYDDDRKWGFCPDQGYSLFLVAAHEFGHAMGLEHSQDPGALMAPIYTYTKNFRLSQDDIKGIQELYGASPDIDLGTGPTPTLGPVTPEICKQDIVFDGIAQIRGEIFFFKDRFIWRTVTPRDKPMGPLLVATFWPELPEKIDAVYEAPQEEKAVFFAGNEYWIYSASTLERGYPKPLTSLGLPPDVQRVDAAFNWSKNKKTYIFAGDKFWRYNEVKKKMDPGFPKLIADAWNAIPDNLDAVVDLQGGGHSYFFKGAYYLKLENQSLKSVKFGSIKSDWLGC

T6: MMP7 (UniProt P09237 95-267, limits assumed)
T6 sequence (looked up): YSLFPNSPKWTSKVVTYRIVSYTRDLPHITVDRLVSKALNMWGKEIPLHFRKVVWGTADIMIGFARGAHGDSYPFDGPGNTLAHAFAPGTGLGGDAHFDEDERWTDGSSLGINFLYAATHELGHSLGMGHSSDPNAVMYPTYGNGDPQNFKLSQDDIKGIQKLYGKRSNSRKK


Legend:
Assay in all cases: cell-based or functional assay
Cathepsin G = biological target: T1, Cathepsin G
MMP1 = biological target: T2, MMP1
ADAMTS5 = biological target: T3, ADAMTS5
MMP13 = MMP13 (human, UniProt P45452 104-471, limits assumed)
MMP3 = MMP3 (human, UniProt P08254 100-477, limits assumed)
Chain of MMP3 (P08254 100-477 limits assumed): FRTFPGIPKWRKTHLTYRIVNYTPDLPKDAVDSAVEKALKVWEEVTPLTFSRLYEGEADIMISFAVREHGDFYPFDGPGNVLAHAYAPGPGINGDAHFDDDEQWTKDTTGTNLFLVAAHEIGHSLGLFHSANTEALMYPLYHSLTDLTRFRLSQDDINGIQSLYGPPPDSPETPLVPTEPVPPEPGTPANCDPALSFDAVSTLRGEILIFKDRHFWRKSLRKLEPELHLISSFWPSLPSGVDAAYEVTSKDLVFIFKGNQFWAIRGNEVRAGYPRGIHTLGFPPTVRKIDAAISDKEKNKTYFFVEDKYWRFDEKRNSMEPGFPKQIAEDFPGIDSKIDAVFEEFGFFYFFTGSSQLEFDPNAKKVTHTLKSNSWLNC

ADAMTS4 = biological target: T4, ADAMTS4
MMP8 = MMP8 (human, UniProt P22894 101-467, limits assumed)
Chain of MMP8 (P22894 101-467 limits assumed): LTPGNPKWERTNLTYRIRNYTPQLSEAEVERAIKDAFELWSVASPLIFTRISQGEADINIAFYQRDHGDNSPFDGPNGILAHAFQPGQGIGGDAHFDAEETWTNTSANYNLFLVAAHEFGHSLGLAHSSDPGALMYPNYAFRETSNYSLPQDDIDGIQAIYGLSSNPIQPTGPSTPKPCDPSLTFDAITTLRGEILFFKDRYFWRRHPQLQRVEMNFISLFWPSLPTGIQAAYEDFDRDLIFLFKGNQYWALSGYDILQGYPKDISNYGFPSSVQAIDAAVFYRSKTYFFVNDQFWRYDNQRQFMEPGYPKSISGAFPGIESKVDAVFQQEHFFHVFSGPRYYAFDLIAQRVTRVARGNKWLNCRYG

MMP2 = biological target: T5, MMP2
MMP7 = biological target: T6, MMP7
MMP9 = MMP9 (human, UniProt P14780 107-707, limits assumed)
Chain of MMP9 (P14780 107-707 limits assumed): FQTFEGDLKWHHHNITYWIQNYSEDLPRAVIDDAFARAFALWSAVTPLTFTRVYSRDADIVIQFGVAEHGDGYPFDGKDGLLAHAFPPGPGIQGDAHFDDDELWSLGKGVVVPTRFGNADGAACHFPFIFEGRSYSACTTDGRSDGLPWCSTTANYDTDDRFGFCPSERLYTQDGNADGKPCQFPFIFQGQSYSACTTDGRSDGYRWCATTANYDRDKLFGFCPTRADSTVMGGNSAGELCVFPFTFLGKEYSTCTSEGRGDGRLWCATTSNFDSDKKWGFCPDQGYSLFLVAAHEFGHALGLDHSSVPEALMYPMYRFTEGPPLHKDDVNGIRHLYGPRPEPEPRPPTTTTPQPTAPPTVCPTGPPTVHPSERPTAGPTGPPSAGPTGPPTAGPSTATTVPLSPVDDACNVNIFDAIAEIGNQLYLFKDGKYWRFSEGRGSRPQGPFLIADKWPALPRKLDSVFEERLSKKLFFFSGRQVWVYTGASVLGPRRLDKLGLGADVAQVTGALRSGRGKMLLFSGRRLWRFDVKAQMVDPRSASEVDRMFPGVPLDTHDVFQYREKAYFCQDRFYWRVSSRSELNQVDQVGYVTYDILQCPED

Elastase = biological target: Elastase

Binder	Protease Inhibition (% of WT) (Cathepsin G)	Protease Inhibition (% of WT) (MMP1)	Protease Inhibition (% of WT) (ADAMTS5)	Protease Inhibition (% of WT) (MMP13)	Protease Inhibition (% of WT) (MMP3)	Protease Inhibition (% of WT) (ADAMTS4)	Protease Inhibition (% of WT) (MMP8)	Protease Inhibition (% of WT) (MMP2)	Protease Inhibition (% of WT) (MMP7)	Protease Inhibition (% of WT) (MMP9)	Protease Inhibition (% of WT) (Elastase)
Variant A2M, bait region SEQ ID NO 25 (other) SVSGKPQYMVLVPSLLHTETTEKGCVLLSYLNETVTVSASLESVRGNRSLFTDLEAENDVLHCVAFAVPKSSSNEEVMFLTVQVKGPTQEFKKRTTVMVKNEDSLVFVQTDKSIYKPGQTVKFRVVSMDENFHPLNELIPLVYIQDPKGNRIAQWQSFQLEGGLKQFSFPLSSEPFQGSYKVVVQKKSGGRTEHPFTVEEFVLPKFEVQVTVPKIITILEEEMNVSVCGLYTYGKPVPGHVTVSICRKYSDASDCHGEDSQAFCEKFSGQLNSHGCFYQQVKTKVFQLKRKEYEMKLHTEAQIQEEGTVVELTGRQSSEITRTITKLSFVKVDSHFRQGIPFFGQVRLVDGKGVPIPNKVIFIRGNEANYYSNATTDEHGLVQFSINTTNVMGTSLTVRVNYKDRSPCYGYQWVSEEHEEAHHTAYLVFSPSKSFVHLEPMSHELPCGHTQTVQAHYILNGGTLLGLKKLSFYYLIMAKGGIVRTGTHGLLVKQEDMKGHFSISIPVKSDIAPVARLLIYAVLPTGDVIGDSAKYDVENCLANKVDLSFSPSQSLPASHAHLRVTAAPQSVCALRAVDQSVLLMKPDAELSASSVYNLLPEKDLTGFPGPLNDQDDEDCINRHNVYINGITYTPVSSTNEKDMYSFLEDMGLKAFTNSKIRKPKMCPQLEHGPEGEGEGEGIPENFYGVSEDLYTASELEGRGSVEEPHTKLRKYFPETWIWDLVVVNSAGVAEVGVTVPDTITEWKAGAFCLSEDAGLGISSTASLRAFQPFFVELTMPYSVIRGEAFTLKATVLNYLPKCIRVSVQLEASPAFLAVPVEKEQAPHCICANGRQTVSWAVTPKSLGNVNFTVSAEALESQELCGTEVPSVPEHGRKDTVIKPLLVEPEGLEKETTFNSLLCPSGGEVSEELSLKLPPNVVEESARASVSVLGDILGSAMQNTQNLLQMPYGCGEQNMVLFAPNIYVLDYLNETQQLTPEIKSKAIGYLNTGYQRQLNYKHYDGSYSTFGERYGRNQGNTWLTAFVLKTFAQARAYIFIDEAHITQALIWLSQRQKDNGCFRSSGSLLNNAIKGGVEDEVTLSAYITIALLEIPLTVTHPVVRNALFCLESAWKTAQEGDHGSHVYTKALLAYAFALAGNQDKRKEVLKSLNEEAVKKDNSVHWERPQKPKAPVGHFYEPQAPSAEVEMTSYVLLAYLTAQPAPTSEDLTSATNIVKWITKQQNAQGGFSSTQDTVVALHALSKYGAATFTRTGKAAQVTIQSSGTFSSKFQVDNNNRLLLQQVSLPELPGEYSMKVTGEGCVYLQTSLKYNILPEKEEFPFALGVQTLPQTCDEPKAHTSFQISLSVSYTGSRSASNMAIVDVKMVSGFIPLKPTVKMLERSNHVSRTEVSSNHVLIYLDKVSNQTLSLFFTVLQDVPVRDLKPAIVKVYDYYETDEFAIAEYNAPCSKDLGNADYKDDDDKGASHHHHHH	117 % of WT	101 % of WT	376 % of WT	138 % of WT	86 % of WT	144 % of WT	36 % of WT	43 % of WT	140 % of WT	25 % of WT	100 % of WT
Variant A2M, bait region SEQ ID NO 28 (other) SVSGKPQYMVLVPSLLHTETTEKGCVLLSYLNETVTVSASLESVRGNRSLFTDLEAENDVLHCVAFAVPKSSSNEEVMFLTVQVKGPTQEFKKRTTVMVKNEDSLVFVQTDKSIYKPGQTVKFRVVSMDENFHPLNELIPLVYIQDPKGNRIAQWQSFQLEGGLKQFSFPLSSEPFQGSYKVVVQKKSGGRTEHPFTVEEFVLPKFEVQVTVPKIITILEEEMNVSVCGLYTYGKPVPGHVTVSICRKYSDASDCHGEDSQAFCEKFSGQLNSHGCFYQQVKTKVFQLKRKEYEMKLHTEAQIQEEGTVVELTGRQSSEITRTITKLSFVKVDSHFRQGIPFFGQVRLVDGKGVPIPNKVIFIRGNEANYYSNATTDEHGLVQFSINTTNVMGTSLTVRVNYKDRSPCYGYQWVSEEHEEAHHTAYLVFSPSKSFVHLEPMSHELPCGHTQTVQAHYILNGGTLLGLKKLSFYYLIMAKGGIVRTGTHGLLVKQEDMKGHFSISIPVKSDIAPVARLLIYAVLPTGDVIGDSAKYDVENCLANKVDLSFSPSQSLPASHAHLRVTAAPQSVCALRAVDQSVLLMKPDAELSASSVYNLLPEKDLTGFPGPLNDQDDEDCINRHNVYINGITYTPVSSTNEKDMYSFLEDMGLKAFTNSKIRKPKMCPQLEQYEMHGPEGEGEGEFRAAPFLTAIPENFFGVSEDLVVQISELEGRGSPHTKLRKYFPETWIWDLVVVNSAGVAEVGVTVPDTITEWKAGAFCLSEDAGLGISSTASLRAFQPFFVELTMPYSVIRGEAFTLKATVLNYLPKCIRVSVQLEASPAFLAVPVEKEQAPHCICANGRQTVSWAVTPKSLGNVNFTVSAEALESQELCGTEVPSVPEHGRKDTVIKPLLVEPEGLEKETTFNSLLCPSGGEVSEELSLKLPPNVVEESARASVSVLGDILGSAMQNTQNLLQMPYGCGEQNMVLFAPNIYVLDYLNETQQLTPEIKSKAIGYLNTGYQRQLNYKHYDGSYSTFGERYGRNQGNTWLTAFVLKTFAQARAYIFIDEAHITQALIWLSQRQKDNGCFRSSGSLLNNAIKGGVEDEVTLSAYITIALLEIPLTVTHPVVRNALFCLESAWKTAQEGDHGSHVYTKALLAYAFALAGNQDKRKEVLKSLNEEAVKKDNSVHWERPQKPKAPVGHFYEPQAPSAEVEMTSYVLLAYLTAQPAPTSEDLTSATNIVKWITKQQNAQGGFSSTQDTVVALHALSKYGAATFTRTGKAAQVTIQSSGTFSSKFQVDNNNRLLLQQVSLPELPGEYSMKVTGEGCVYLQTSLKYNILPEKEEFPFALGVQTLPQTCDEPKAHTSFQISLSVSYTGSRSASNMAIVDVKMVSGFIPLKPTVKMLERSNHVSRTEVSSNHVLIYLDKVSNQTLSLFFTVLQDVPVRDLKPAIVKVYDYYETDEFAIAEYNAPCSKDLGNADYKDDDDKGASHHHHHH	69 % of WT	67 % of WT	398 % of WT	90 % of WT	129 % of WT	180 % of WT	38 % of WT	36 % of WT	94 % of WT	14 % of WT	75 % of WT
